Usually EC50 (read off the curve) stands for the midpoint of the concentration-response curve.

This note sets out measurements from patent US20200347144A1 (SHANGHAI HYAMAB BIOTECH, published 2020).

In experiment [1] the target is T1, human 4-1BB, full length, on transfected cells (human, UniProt Q07011 24-255).
T1 construct: whole, on cells; also called CHOK1-h4-1BB
Briefly: FACS, CHOK1-h4-1BB cells; Ab 2 ug/ml. From the text:
(§1) The pIRES plasmid carrying the full-length gene of monkey-derived […] (the preparation method is the same as the preparation method of the pCpC vector carrying the human-derived IgG Fc fragment (hFc) in “Preparation of immunogen A” of the step (1) in Example 1, in which the database accession number of the amino acid sequence of the extracellular region of monkey 4-1BB protein (Phe19-Thr239) is G7PSE7) was transfected into CHOK1 cell line to obtain CHOK1 stable transfected cell line containing monkey 4-1BB (herein referred to as CHOK1-c4-1BB stable cell line). The CHOK1-h4-1BB stable cell line and the CHOK1-c4-1BB stable cell line were expanded and cultivated to 90% confluence in T-75 cell culture flasks. The medium was exhausted, and washed twice with HBSS buffer (Hanks Balanced Salt Solution, purchased from Invitrogen), and then the cells were treated and collected with enzyme-free cell dissociation solution (Versene solution, purchased from Life Technology). The cells were washed twice with HBSS buffer, and after cell counting, the cells were diluted with HBSS buffer to 2×10⁶ cells per ml, and 1% goat serum blocking solution was added, the percentage being the mass percentage. It was incubated on ice for 30 minutes, and then washed twice with HBSS buffer by centrifugation. The collected cells were suspended in FACS buffer (HBSS containing 1% BSA, the percentage was the mass percentage) to 2×10⁶ cells/mL, and 100 μl per well was added to a 96-well FACS reaction plate. The purified 4-1BB antibody test sample obtained in Example 2 was added, 100 microliters per well and incubated on ice for 2 hours. […] It was washed three times with FACS buffer by centrifugation, and 100 μl of fixative [4% (v/v) paraformaldehyde] per well was added to suspend cells, and washed twice with FACS buffer after 10 minutes by centrifugation. The cells were suspended with 100 microliters of FACS buffer, and the results were detected and analyzed with FACS (FACS Calibur, purchased from BD).

Experiment [2] addresses T2, monkey 4-1BB on CHOK1 cells (monkey).
T2 construct: whole, on cells; also called CHOK1-c4-1BB
Briefly: FACS, CHOK1-c4-1BB cells; Ab 2 ug/ml.
From the text: as §1

The target of experiment [3] is T2, monkey 4-1BB on CHOK1 cells. Briefly: FACS, CHOK1-c4-1BB cells; Ab 10 ug/ml.
From the text: as §1
On the technique in general: A flow cytometer gives signals particle by particle.

The target in experiment [4] is T1, human 4-1BB, full length, on …. The experiment in a line: FACS, CHOK1-h4-1BB cells; Ab 0.4 ug/ml.
From the text: as §1

Experiment [5] shares this target. The experiment in a line: FACS, CHOK1-h4-1BB cells; Ab 0.016 ug/ml.
From the text: as §1

The target of experiment [6] is T3, hFc-tagged human 4-1BB extracellular domain protein (4-1BB-hFc) (human, UniProt Q07011 24-186, limits assumed).
T3 construct: also called immunogen A; 4-1BB^ECD-hFc; not shown: human IgG Fc fragment (hFc) of the pCpC vector
Briefly: ELISA, coated human 4-1BB-hFc; Ab 2 ug/ml. The procedure: (§2) The purified immunogen A (4-1BB-hFc), monkey 4-1BB-his, and mouse 4-1BB-his obtained in Example 1 [for the preparation method, see step 1 of Example 1, preparation of immunogen A], of which the extracellular domain of monkey-derived 4-1BB protein (purchased from ACRO biosystems), the extracellular domain of mouse 4-1BB protein (purchased from sino biological) or other immune detection point proteins respectively were diluted with PBS to a final concentration of 1.0 μg/mL, then added with […] per well to 96-well ELISA plate. It was sealed with plastic film and incubated at 4° C. overnight. The next day, the plate was washed twice with the plate-washing solution [PBS containing 0.01% (v/v) Tween20] and blocking solution [PBS containing 0.01% (v/v) Tween 20 and 1% (v/v) BSA] was added and blocked at room temperature for 2 hours. The blocking solution was discarded and 100 μl of the purified 4-1BB antibody obtained in Example 2 was added per well. After incubated at 37° C. for 2 hours, the plate was washed 3 times with a plate-washing solution [PBS containing 0.01% (v/v) Tween20]. A secondary antibody (purchased from Sigma) labeled with HRP (horseradish peroxidase) was added, and after incubated at 37° C. for 2 hours, the plate was washed 3 times with a plate-washing solution [PBS containing 0.01% (v/v) Tween20]. 100 μl of TMB substrate was added per well. After incubated for 30 minutes at room temperature, 100 μl of stop buffer (1.0N HCl) was added per well. The A450 nm values were read using an ELISA plate reader (SpectraMax 384plus, Molecular Device).

Experiment [7] addresses T1, human 4-1BB, full length, on …. Briefly: FACS, CHOK1-h4-1BB cells; Ab 0.0032 ug/ml.
From the text: as §1

Experiment [8] shares this target. The experiment in a line: FACS, CHOK1-h4-1BB cells; Ab 0.00013 ug/ml.
From the text: as §1

For experiment [9], the target named is T2, monkey 4-1BB on CHOK1 cells. Briefly: FACS, CHOK1-c4-1BB cells; Ab 0.00013 ug/ml.
From the text: as §1

Experiment [10] has the same target. The experiment in a line: FACS, CHOK1-c4-1BB cells; Ab 0.00064 ug/ml.
From the text: as §1

The target of experiment [11] is T3, hFc-tagged human 4-1BB extracellular …. Briefly: ELISA, coated human 4-1BB-hFc; Ab 0.08 ug/ml. The procedure:
as §2
In general terms: In an ELISA, binding on a coated surface is turned into a signal by an enzyme label.

For experiment [12] the target is unchanged. Briefly: ELISA, coated human 4-1BB-hFc; Ab 0.0001 ug/ml. The procedure: as §2
The target is the same in experiment [13]. Briefly: ELISA, coated human 4-1BB-hFc; Ab 0.0032 ug/ml. The procedure:
as §2

The target of experiment [14] is T1, human 4-1BB, full length, on …. The experiment in a line: FACS on CHOK1-h4-1BB cells, Alexa 488 secondary antibody, average fluorescence intensity.
From the text: as §1

T1 sequence (Q07011 24-255): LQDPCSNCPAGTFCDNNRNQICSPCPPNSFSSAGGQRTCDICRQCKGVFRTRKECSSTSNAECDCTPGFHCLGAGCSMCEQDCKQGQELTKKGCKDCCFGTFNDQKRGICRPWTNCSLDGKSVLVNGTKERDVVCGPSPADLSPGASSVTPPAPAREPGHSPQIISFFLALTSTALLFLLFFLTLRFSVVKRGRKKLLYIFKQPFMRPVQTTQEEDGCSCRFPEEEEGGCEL

B1: 52F4G2 (antibody, V domains shown)
VH: QVQLQESGPGLVKPSETLSLTCAVSGYSISSGYYWGWIRQPPGKGLEWIGSIFHSGSSYYNPSLKSRVTISVDTSKNQFSLKLRSVTAADTAVYYCARESSGWNCFDYWGQGTLVTVSS
VL: DIQMTQSPSTLSASVGDRVTITCRASQTISTWLAWYQQKPGKAPKLLIYKASNLESGVPSRFSGSGSGTEFTLTISSLQPDDFATYYCQQYNSYSITFGQGTRLEIK
Regarding B1, the average fluorescence intensity in experiment [1] was 600 MFI; in [2], 679 MFI; in experiment [3], 736 MFI; in experiment [4], 584 MFI; in experiment [5], 141 MFI; in experiment [7], 38.3 MFI. Moreover, the average fluorescence intensity stood at 4.8 MFI in experiment [8], 3.2 MFI in [9] and 4.5 MFI in experiment [10]. Moreover, the OD450 nm in [6] worked out at 3.1 OD450 nm; in experiment [11], 3.08 OD450 nm; in experiment [12] it was 0.26 OD450 nm; in [13], 0.89 OD450 nm. In experiment [14], the “EC50 (read off the curve)” value was roughly 0.05 µg/mL.

B2: 23G3B8 (antibody, V domains shown)
VH: QVQLQESGPGLVKPSETLSLTCAVSAYSISSGYYWGWIRQPPGKGLEWIGSIFHSGSNYYNPSLKSRVTISVDPSKNQFSLKLSSVTVADTAVYYCARESSGYNCFDYWGQGTLVTVSS
VL: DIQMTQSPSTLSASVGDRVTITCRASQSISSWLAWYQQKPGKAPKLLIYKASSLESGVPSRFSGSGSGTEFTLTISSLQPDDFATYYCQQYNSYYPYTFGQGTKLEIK
Regarding B2, the average fluorescence intensity in experiment [1] amounted to 619 MFI; in [2], 586 MFI; in experiment [3], 595 MFI; in experiment [4], 541 MFI; in experiment [5] it was 126 MFI; in experiment [7] it was 38.5 MFI. The average fluorescence intensity in experiment [8] stood at 4.6 MFI; in experiment [9], 3.4 MFI; in experiment [10], 4.7 MFI. In addition, the OD450 nm in experiment [6] came out at 2.78 OD450 nm; in experiment [11], 2.53 OD450 nm; in experiment [12], 0.07 OD450 nm; in [13], 0.28 OD450 nm.

B3: 289B6G6 (antibody, V domains shown)
VH: QVQLQESGPGLVRPSETLSLTCAVSGYSISSGYYWGWIRQPPGKGLEWIGSIFHSGNTYYNPSLKSRVIVSGDTSKNQFSLKLSSVTAADTAVYYCTRESSGFNVFDIWGQGTMVTVSS
VL: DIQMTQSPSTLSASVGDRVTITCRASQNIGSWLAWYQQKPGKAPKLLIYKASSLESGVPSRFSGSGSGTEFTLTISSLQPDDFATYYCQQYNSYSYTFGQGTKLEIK
Take B3: the average fluorescence intensity turned out to be 1920 MFI in [1]; 597 MFI in experiment [2]; 601 MFI in experiment [3]; 1520 MFI in experiment [4]; 101 MFI in experiment [5]; 26.7 MFI in experiment [7]. Besides, the average fluorescence intensity in [8] was 4 MFI; in experiment [9], 3 MFI; in experiment [10] it was 5.3 MFI. Also, the OD450 nm worked out at 2.77 OD450 nm in experiment [6], 2.73 OD450 nm in experiment [11], 0.07 OD450 nm in experiment [12] and 0.34 OD450 nm in experiment [13].

B4: 113F6C6 (antibody, V domains shown)
VH: QVQLVESGGGVVQPGRSLRLSCAASGLTFSSYGMHWVRQAPGKGLEWVAVIWYDGSNKYYADSVKGRFTISRDNSKNTLYLQMNSLRAEDTAVYYCAREEVLWFGELSYNYYYGMDVWGQGTTVTVSS
VL: DIQMTQSPSSLSASVGDRVTITCRASQGISNYLAWYQQKPGKVPKLLIYAASTLQSGVPSRFSGSGSGTDFTLTISSLQPEDVATYYCQKYNSVPLTFGGGTKVEIK
notes: also called 4-1BB fully human antibody 113F6C6; 113F6F6
Turning to B4, the average fluorescence intensity in experiment [1] was determined as 477 MFI; in experiment [2] it was 438 MFI; in experiment [3], 426 MFI; in experiment [4] it was 323 MFI; in experiment [5] it was 46.2 MFI; in [7] it was 13.7 MFI. In addition, the average fluorescence intensity in experiment [8] came out at 2.7 MFI; in experiment [9], 2.9 MFI; in [10], 5.5 MFI. Moreover, the half-maximal effective concentration (EC50 (read off the curve)) in [14] is roughly 0.1 µg/mL.

B5: 119B6G5 (antibody, V domains shown)
VH: EVQLLESGGGLVQPGGSLRLSCAASGFTFSNYAMSWVRQGPGKGLEWVSTIIGSGDSTYYTDSVKGRFTISRDNSKNTLFLQMNSLRAEDTAVYYCARDKSGWYYFDYWGQGTLVTVSS
VL: DIQMTQSPSTLSASVGDRVTITCRASQSISNWLAWYQQKPGKAPKLLIYKASSLESGVPSRFSGSGSGTEFTLTISSLQPDDFATYYCQQYNDYFPITFGQGTRLEIK
As for B5, the average fluorescence intensity in experiment [1] was 1080 MFI; in experiment [2] it was 1350 MFI; in experiment [3], 1470 MFI; in experiment [4], 636 MFI; in [5], 49.1 MFI; in experiment [7], 17.8 MFI. In addition, the average fluorescence intensity came to 2.6 MFI in experiment [8], 3.2 MFI in experiment [9] and 6.6 MFI in [10]. Also, the OD450 nm was found to be 2.76 OD450 nm in [6], 2.62 OD450 nm in experiment [11], 0.07 OD450 nm in experiment [12] and 0.33 OD450 nm in [13].

B6: 57B3D10 (antibody, V domains shown)
VH: QVQLQESGPGLVKPSETLSLTCTVSGGSISSYYWSWIRQPPGKGLEWIGYIYYSGSTNYNPSLKSRVTISVDTSKSQFSLKLTSVTAADTAVYYCAKDSDYYGSGSYSYWYFDLWGRGTLVTVSS
VL: EIVMTQSPATLSVSPGERATLSCRASQSVSSNLAWYQQKPGQAPRLLIYGASTRAPGIPARFSGSGSGTEFTLTISSLQSEDFAVYYCQQYNNWPLTFGGGTKVEIK
notes: also called 4-1BB fully human antibody 57B3D10
With B6, the average fluorescence intensity is 555 MFI in experiment [1]; 567 MFI in experiment [2]; 581 MFI in experiment [3]; 490 MFI in experiment [4]; 148 MFI in experiment [5]; 42.7 MFI in [7]. Besides, the average fluorescence intensity in experiment [8] came out at 4.9 MFI; in experiment [9], 3.3 MFI; in experiment [10], 5.6 MFI. Also, the “EC50 (read off the curve)” value in [14] is roughly 0.05 µg/mL.
